Data taken from the nanobody polyreactivity screen of Harvey et al. (2022).

Assay: yeast display, Sf9 membrane polyspecificity reagent, FACS + sequencing; frameworks hold sequencing errors
Outline: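 Galactose-induced (36–48 hours) yeast carrying a synthetic nanobody display library were exposed to 10% biotinylated, detergent-solubilized Sf9 membrane reagent at 4 °C for 1 hour. FACS followed streptavidin microbead enrichment, using low and high (top ~1%) gates for expression (anti-HA) and reagent binding (streptavidin). Colony PCR, MiSeq 2 × 250 sequencing and CDR-length filtering followed. Labels for polyreactivity reflect the gate of origin.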

| Sequence | polyreactivity (PSR sort gate) |
| --- | --- |
| QVQLVESGGGLVQAGGSLRLSCAASGSTSYVYAMGWYRQAPGKERELVAAISNTGNTNYADSVKGRFTISRDNAKNTVYLQMNSLKPEDTAVYYCNADRRGENDWHERDYWGQGTQVTVSS | low polyreactivity |
| QVQLVESGGGLVQAGGSLRLRCAASGSIFEEYAMGWSRPAPGKERELVAAITSRGGSTYYADSVKGRFTISRDNAKNNVYLQMNSLKPEDTAVYYCAAGVASLTTGSYDYWGQGTQVTVSS | low polyreactivity |
| QVQLVESGGGLVQAGGSLRLSCAASGRTFGAYAMGWYRQAPGKERELVATITVSGGSTYYADSVKGRFTISRDNAMNTVSLQLNSLKPEDTAVYYCATEFYEEYWGQGTQVTVSS | low polyreactivity |
| QVQLVESGGGLVQAGGSLRLSCAASGFTFHGYAMGWYRQAPGKERELVAAIRSGDRTYYADSVKGRFTISRDNAKNTVYLQMNSLKPEDTAVYYCAVVYGYLYRYSAKYDYWGQGTQVTVSS | low polyreactivity |
| QVQLVESGGGLVQAGGSLRLSCAASGFTFRRYAMGWYRQAPGKERELVAVITTGGSTYYADSVKGRFTISRDNAKYTVYLQMNSLKPEDTAVYYCAARYYWYSQEYVMSSWWGDYWGLGTQVTVSS | high polyreactivity |
| QVQLVESGGGLVQAGGSLRLSCAASGITFEGYALGWYRQAPGKERELVAAIRSSGTSTYYADSVKGRFTISRDIAKNTVYLQMNSLKPEDTAVYYCNRARSSSRYDYWGQGTQVTVSS | low polyreactivity |
| QVQLVESGGGLVQAGGSLRLSCAASGSIFPDYALGWSRQAPGKESELVAAITRRDDSTYYADSVKGRFTISRDKAKNTVYLQMNSLKPEDTAVYYCNASALDPLYAKDDYWGQGTQVTVSS | low polyreactivity |
| QVQLVESGGGLVQAGGSLRLTCAASGSTFWSNSMGWYRQAPGKERELVAAISSRGGSTYYADSVKGRFTISRDNAMNTVYLQMNSLKPEDTAVYYCAARSKRLAHDYWGQGTQVTVSS | high polyreactivity |
| QVQLVESGGGLVQAGGSLRLSCAASGSIFTFYAMGLYRQAPGKERELVAAISYRGGSTYYADSVKGRFTISRDNAKNTVYLQINSLKPEDTAVYYCAAARFPVFIQGYRMEYWGQGTQVTVSS | low polyreactivity |
| QVHLVESGGGLVQAGGSLRLSCAASGSIFGYNAMGWYRQAPGKERELVAAITWRGGSTYYADSVKGRFTISRDNAKNTVYLQMNSLKPEDTAVYYCAAYVYQEYDYWGQGTQVTVSS | high polyreactivity |
| QVQLVESGGGLVQAGGSLRLSCAPSGRTFVYYAMGWYRQAPGKERELVASISSGGGSTNYADSVKGRFTISRDNAKNTVYLQMNSLKPEDTAVYYCAVDTPRYRYYRTSYDYWGQGTQGTVSS | low polyreactivity |
| QVQLVESGGGLVQAGGSLRLSCAASGRIFYDYDMGWYRQAPGKERELVAAISYGGGTTYYADSVKGRFTISRDNAKNTVYLQMTSLKPEDTAVYYCAAEYASGSYDEYDYWGQGTQVTVSS | low polyreactivity |
| QVQLVESGGVLVQAGGSLRLSCPASGRIYDGYAMGWYRQAPGKERELVAAINSNDGTTYYADSVKGRFTISRDNAKNTVYLQMNSLKPEDTAVYYCAKVSYNAWSYGPQMDYWGQGTQVTVSS | low polyreactivity |
| QVQLVESGGGLVQAGGSLRLICAAYGGIFISYAMGWYRQAPWKERELVAAINYSGGSTNYADSVKGRFTLSRDNAKNTVYLQMNSLKPEDTAVYYCAARSTARYGYWGQGTQVTVSS | low polyreactivity |
| QVQLVESGGGLVQAGGSLRLSCAASGSIFRSYAMGWYRQAPGKERELVAAISWDGGTTYYADSVKGRFTISRDNAKNTVYLQMNSLKPEDTAVYYCAADASLLGLFQGYDYRGQGTQVTVSS | low polyreactivity |
| QVQLVESGGGLVQAGGSLRLSCAASGRTFRTNVMGGYIQAPGKERELVADISKRGGSTYYADSVKGRFTISRDNAMNTVYVQINSQKPDDTAVYYCAADYSPYYYHQGDYWGQGTQVTVSS | high polyreactivity |
| QVQLVESGGGLVQAGGSLRLSCAASGRTFAINAMGGYRQAPGKERELVATIDRSGGSTYYADSVKGRFTISRDNAKNTVYLQMNRLKPEDTAVYYCAADYPVRSYDYWGQGTQVTVSS | low polyreactivity |
| QVQLVESGGGLVQAGGSLRLSCAASGRIFVNYAMGWYRQAPGKERELVAVISRSGGGTNYADSVKGRFTISRDNAKNTVYLQMNSLKPEDTAVYYCNRVYALTYYAKYGYDYWGQGTQVTVSS | high polyreactivity |
| QVQLVESGGGLVQAGGSLRLSCAASGSIFDYNAMGWNRQAPGKDRELVAAISSGGSTYYADSVKGRFTISRDNAKNTVYLQMNSLKPEDTAVYYCAVKFWMVIQFDYWGQGTQVTVSS | low polyreactivity |
| QVQLVESRGGLVQAGGSLRLSFPASGSTFYKYAKGWYRQAPGKERELVASISRRAGSTYYADSVKGRFTISRDNAKNTVDVQMTSLKPEDTAVYYCAAVGRYDRVFDYDYWGQGTQVTVSS | high polyreactivity |
| QVQLVESGGGLVQAGGSLRLSCAAAGIISPFYAMGWYRQAPGKERELVADISTGGTTTYADSVKGRFTISRDNAKNTVYLQMNSLKPVDTAVYYCNAEVCLTYYWIVWASYDYWGQGTQVTVSS | low polyreactivity |
| QLQLVESGGGLVLAGGSLRLSCAASGYLFQRTAKGCYRQATGKVRELVSTISRGGARTSYAYSVKGRFTISSDNANNTVYLQMNSLKPEDTAVYYCAKSYRKAGGMWSYGYWGQGTQVTVSS | high polyreactivity |

| Sequence | polyreactivity (PSR sort gate) |
| --- | --- |
| QVQLVESGGGLVQAGGSLRLICDASGRIFQFYAMGWYRQAPGKERELVAVITRRGGSTHYADSVKGRFTISRDNAKNTVYLQMNSLNPEDTAVYYCAAEWQTQGYEYWGQGTQVTVSS | high polyreactivity |
| QVQLVESGGGLVQAGGSLRLSCAASGSIFYSYAMGWYRQAPGKERELVAAITTGGSTYYADSVKGRFTISRDNAKNTVYLQMNSLKPEDTAVYYCAADFKPTVTNEPKELDYWGQGTQVTVSS | low polyreactivity |
| QVQLVESGGGLVQAGGSLRLSCAASGITFVYYAMGWYRPAPGKERELVAAISWNGGSTYYADSVKGRFTISRDNAKNTVYLQMNSLKPEDSAVYYCNADSDPWYGHFSYYYYDMGYWGQGTQVTVSS | low polyreactivity |
| AVQLVESGGGLVQAGGSLRLSCAASGSTCTGMTWDGRHRRLGRKELVAGIRSAGSTNYADSVKGRFTISGDNAKITVYLQLNSLKPEDTAVYYCAKDYRWVWRKYGYWGQGTQVTVSS | low polyreactivity |
| QVQLVESAGGLVQEGGSLRIRCAASGRIYQLYTMGGYRQAPGKERELDAAITTGTSTSYAYSVKGRFTISRDNAKNTVYLLMYSLKPVDTAFYFCNKGSVSYYSVFVPYESDYGGQGTQVTVSS | low polyreactivity |
| QVQLVESGGGLVQAGGSLRLSCAPSGFTFSYNAMGWYRQAPGKERELVAAISNSGGSTYYADSVKGRFTISRDNAKYTVYLQMNSLKPEDTAVYYCAADVAQVGYQVGVSEIYPGYEYWGQGTQVTVSS | low polyreactivity |
| QVQLVESGGGLVQAGGSLRLSCAASGRTFWWYAMGWYRQAPGKERELVAGISGSTGTTHYADSVKGRFTISRDNAKNTVYLQMNSLKPEDTAGYYCAARRRYYRGFLFDYWGQGTQVTVSS | high polyreactivity |
| QVQLVESGGGLVQAGGSLRLSCAASGRTFYTNAMGWYRQAPGKERELVAAITGDGTSTYYADSVKGRFTISRDNAKNTVYLEMNSLKPEDTAVYYCNATLPDYWPYYYYQGGDDYWGQGTQVTVSS | low polyreactivity |
| QVQLVESGGGLVQAGGSLRLSCAASGSTFYRNAMGWYRQAPGKERELVATITFNGGSTYYADSVKGRFTISRDNAKNTVYLQMNSLKPEDTAVYYCNTDWRGDPELYDYWGQGTQVTVSS | low polyreactivity |
| QVQLVESGGGLVQAGGSLRLSCDASGFIFYYYDMGWYRQAPGKERELVASIDNGGDTNYADSVKGRFTISLDNAKNTVYLQMNSLKPEDTAVYYCAAPYSPLWYPGGDYWRQGTQVTVSS | low polyreactivity |
| QVQLVESGGGLVQAGGSLRLTCAASGRIFSRNAMGWYRQAPGKERELVAAISSSGGSTSYADSVKGRFTISRDNAKNTVYLQMNSLKPEDTAVYYCAADSYPAYLGFVGFDYWGQGTQVTVSS | low polyreactivity |
| QVQLVESGGGLVQAGGSLRLICAASGSISYYNAMGRYRQAPGKERELVADITSGGGTYYADSVMGGFTISRDNAKNTVFLQMNSLKPEDTAVYYCAKDYGFTGYGYWGQGTQVTVSS | low polyreactivity |
| QVQLVESGGGLVQAGGSLRLSCAASGSIFVWYDMGWYRQAPGKERELVATFSLSGVSTYYADSVKGRFTISRDNAKNTVYLQMNSLKPEDSAVYYCAADFVEQGEDDYWGQGTQVTVSS | low polyreactivity |
| QVQLVESGGGLVQAGGSLRLSCAASGSTLVLNAMGWYRQAPGKERELVAAITISGDTTYYADSVKGRFTISRDNAKNTVYLQMNSLKPEDTAVYYCAVDSFLVYSAVRPYDYWGQGTQVTVSS | low polyreactivity |
| QVQLVESGGGLVQAGGSLRLSCAASGSTFFYNAMGWSRQAPGKERELVASINDRAGRTYYADSVKGRFSISRDNAKNTVYLQMNSLKPEDTAVYYCAAEPWYKFDDDFWGQGTQVTVSS | low polyreactivity |
| QVQLVESGGGLVQAGGSLRLSCAASGSIFNVNAMGWYRQAPGKERELVAAISSGGNTNYADSVKGRFTFSRDNAKNTVYLQMNRLKPEDTAVYYCATGGYYSAIVYGGYDYWGQGTQVTVSS | low polyreactivity |
| QVQLVESGGGLVQAGGSLRLSCAASGFTFTDYAMGWYRQAPGKERELVAAIYGIGGSTYYADSVKGRFTISRDNAKITVYLKMKSLKPEDTAVYYWNAYRSFTGYDYDYWGQGTQVTVSS | high polyreactivity |
| QVQLVESGGGLVQAGGSLRLSCAASGSTFTGNAMGWYRQAPGKERELVASINGSSGSTYYADSVKGRFTISRDNAKNTVYLQMNSLKPEDTAVYYGAKDSFLHFPRVGWVGLEYWGQGTQVTVSS | low polyreactivity |
| QVQLVESGGGLVQAGGSLRLSCAASGITFNPYTMGWYRQAPGKERELVADINRGGDTTYADSVKGRFTISRDNAKNTVYLQMNSLKPEDTAVYYCAKRLVQWMDYWGQGTQVTVSS | low polyreactivity |
| QVQRVESGGGLVQAGGSLRLSCAASGRTFDGYAMGWYRQAPGKDRELVAAISKRGGSTYYADSVKGRFTISRDNAKNTVYLQMHSLKPEDTAVYYCNTRYFGDQTWVGGDSWGQGTQVTVSS | high polyreactivity |
| QVQLVESGGGLVQAGGSLRLSCAASGSIFYYYAMGWYRQAPGKERELVAAISTSSGRTYYADSVKGRFTISRDNAKNTVYLQMNSLKPEDTAVYYCATRYRRDGGSWGQGTQVTVSS | high polyreactivity |
